Starred links: 1 amine or outer side, 2 acyl side, 3 side chain; linkers in the order of their positions; H or OH if unused. Non-standard residues stand in square brackets, D forms with d. *: point of attachment. AC4Abu = α-carboxy-4-aminobutyric acid, O=C(C(CCN[*:1])C(=O)[*:3])[*:2]; Oic = O=C(O)[C@@H]1C[C@@H]2CCCC[C@@H]2N1; Phe(4-Cl) = N[C@@H](Cc1ccc(Cl)cc1)C(=O)O; γGlu = O=C(O)[C@H](CCC(=O)[*:2])N[*:1]; 2Nal = N[C@@H](Cc1ccc2ccccc2c1)C(=O)O; NMeR = CN[C@@H](CCCNC(=N)N)C(=O)O; Tridecanoyl = CCCCCCCCCCCCC(=O)*; Cha = N[C@@H](CC1CCCCC1)C(=O)O; αMeL = CC(C)C[C@](C)(N)C(=O)O; Tle = CC(C)(C)[C@H](N)C(=O)O; β3hP = O=C(O)C[C@@H]1CCCN1; β3hS = N[C@@H](CO)CC(=O)O; Nle = CCCC[C@H](N)C(=O)O; AEEA = NCCOCCOCC(=O)O; Aib = CC(C)(N)C(=O)O; BLeu = β-leucine
How the values were obtained:
[1] = target: T1, human APJ receptor (human, UniProt P35414 1-380); assay: cell-based or functional assay
T1 sequence (looked up): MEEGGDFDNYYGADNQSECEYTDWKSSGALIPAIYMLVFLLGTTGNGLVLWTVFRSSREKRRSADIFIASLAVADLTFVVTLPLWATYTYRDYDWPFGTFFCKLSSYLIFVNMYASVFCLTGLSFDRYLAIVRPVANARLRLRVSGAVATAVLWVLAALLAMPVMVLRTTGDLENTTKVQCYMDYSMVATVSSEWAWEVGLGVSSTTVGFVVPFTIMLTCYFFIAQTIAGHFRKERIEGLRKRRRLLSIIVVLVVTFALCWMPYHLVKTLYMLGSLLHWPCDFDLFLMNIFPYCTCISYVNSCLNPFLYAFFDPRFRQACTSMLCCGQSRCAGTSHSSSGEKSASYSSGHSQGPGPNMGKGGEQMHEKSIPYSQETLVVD

[2] = target: T2, rat APJ receptor (rat, UniProt Q9JHG3 1-377); assay: cell-based or functional assay
T2 sequence (looked up): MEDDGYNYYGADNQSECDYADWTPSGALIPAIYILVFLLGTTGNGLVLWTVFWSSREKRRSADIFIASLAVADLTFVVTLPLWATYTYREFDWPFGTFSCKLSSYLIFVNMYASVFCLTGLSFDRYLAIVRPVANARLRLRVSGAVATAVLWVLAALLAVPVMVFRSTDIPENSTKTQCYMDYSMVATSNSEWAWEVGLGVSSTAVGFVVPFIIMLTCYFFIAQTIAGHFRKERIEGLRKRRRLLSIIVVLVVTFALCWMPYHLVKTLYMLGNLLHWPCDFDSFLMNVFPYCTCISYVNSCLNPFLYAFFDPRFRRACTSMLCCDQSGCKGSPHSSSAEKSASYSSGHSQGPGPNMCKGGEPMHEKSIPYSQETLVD

Binder	EC50 Human APJ Receptor (GTPγS assay) [1] [pM]	EC50 Rat APJ Receptor (GTPγS assay) [2] [nM]
Tridecanoyl-[γGlu][AEEA][AEEA]QRP[NMeR][Cha]SH[AMeK]G[Oic][Nle]P[Phe(4-Cl)]-OH [Apelin polypeptide SEQ ID NO: 444]	5600	10.1
Tridecanoyl-[γGlu][AEEA][AEEA]QRP[NMeR][αMeL]SHKG[Oic][Nle][Phe(4-Cl)]-OH (SMILES CCCCCCCCCCCCC(=O)N[C@@H](CCC(=O)NCCOCCOCC(=O)NCCOCCOCC(=O)N[C@@H](CCC(N)=O)C(=O)N[C@@H](CCCNC(=N)N)C(=O)N1CCC[C@H]1C(=O)N(C)[C@@H](CCCNC(=N)N)C(=O)N[C@@](C)(CC(C)C)C(=O)N[C@@H](CO)C(=O)N[C@@H](Cc1c[nH]cn1)C(=O)N[C@@H](CCCCN)C(=O)NCC(=O)N1[C@H](C(=O)N[C@@H](CCCC)C(=O)N[C@@H](Cc2ccc(Cl)cc2)C(=O)O)C[C@@H]2CCCC[C@@H]21)C(=O)O) [Apelin polypeptide SEQ ID NO: 389]	196	0.365
Tridecanoyl-[γGlu][AEEA][AEEA][dQ]RP[NMeR][αMeL]SHKG[Oic][Nle]P[Phe(4-Cl)]-OH (SMILES CCCCCCCCCCCCC(=O)N[C@@H](CCC(=O)NCCOCCOCC(=O)NCCOCCOCC(=O)N[C@H](CCC(N)=O)C(=O)N[C@@H](CCCNC(=N)N)C(=O)N1CCC[C@H]1C(=O)N(C)[C@@H](CCCNC(=N)N)C(=O)N[C@@](C)(CC(C)C)C(=O)N[C@@H](CO)C(=O)N[C@@H](Cc1c[nH]cn1)C(=O)N[C@@H](CCCCN)C(=O)NCC(=O)N1[C@H](C(=O)N[C@@H](CCCC)C(=O)N2CCC[C@H]2C(=O)N[C@@H](Cc2ccc(Cl)cc2)C(=O)O)C[C@@H]2CCCC[C@@H]21)C(=O)O) [Apelin polypeptide SEQ ID NO: 386]	93.4	0.261
Tridecanoyl-[γGlu][AEEA][AEEA]QRP[NMeR][Cha]S[Tle]KG[Oic][Nle]P[Phe(4-Cl)]-OH (SMILES CCCCCCCCCCCCC(=O)N[C@@H](CCC(=O)NCCOCCOCC(=O)NCCOCCOCC(=O)N[C@@H](CCC(N)=O)C(=O)N[C@@H](CCCNC(=N)N)C(=O)N1CCC[C@H]1C(=O)N(C)[C@@H](CCCNC(=N)N)C(=O)N[C@@H](CC1CCCCC1)C(=O)N[C@@H](CO)C(=O)N[C@H](C(=O)N[C@@H](CCCCN)C(=O)NCC(=O)N1[C@H](C(=O)N[C@@H](CCCC)C(=O)N2CCC[C@H]2C(=O)N[C@@H](Cc2ccc(Cl)cc2)C(=O)O)C[C@@H]2CCCC[C@@H]21)C(C)(C)C)C(=O)O) [Apelin polypeptide SEQ ID NO: 438]	1490	1.28
Tridecanoyl-[γGlu][AEEA][AEEA][dQ]RP[NMeR][αMeL]SHKG[Oic][Nle][β3hP][Phe(4-Cl)]-OH (SMILES CCCCCCCCCCCCC(=O)N[C@@H](CCC(=O)NCCOCCOCC(=O)NCCOCCOCC(=O)N[C@H](CCC(N)=O)C(=O)N[C@@H](CCCNC(=N)N)C(=O)N1CCC[C@H]1C(=O)N(C)[C@@H](CCCNC(=N)N)C(=O)N[C@@](C)(CC(C)C)C(=O)N[C@@H](CO)C(=O)N[C@@H](Cc1c[nH]cn1)C(=O)N[C@@H](CCCCN)C(=O)NCC(=O)N1[C@H](C(=O)N[C@@H](CCCC)C(=O)N2CCC[C@H]2CC(=O)N[C@@H](Cc2ccc(Cl)cc2)C(=O)O)C[C@@H]2CCCC[C@@H]21)C(=O)O) [Apelin polypeptide SEQ ID NO: 554]	867	2.83
Tridecanoyl-[γGlu][AEEA][AEEA]QRP[NMeR][BLeu]SHKG[Oic][Nle]P[Phe(4-Cl)]-OH [Apelin polypeptide SEQ ID NO: 391]	565	1.5
Tridecanoyl-[γGlu][AEEA][AEEA][dQ]RP[NMeR][Cha]SAKG[Oic][Nle][Aib][Phe(4-Cl)]-OH (SMILES CCCCCCCCCCCCC(=O)N[C@@H](CCC(=O)NCCOCCOCC(=O)NCCOCCOCC(=O)N[C@H](CCC(N)=O)C(=O)N[C@@H](CCCNC(=N)N)C(=O)N1CCC[C@H]1C(=O)N(C)[C@@H](CCCNC(=N)N)C(=O)N[C@@H](CC1CCCCC1)C(=O)N[C@@H](CO)C(=O)N[C@@H](C)C(=O)N[C@@H](CCCCN)C(=O)NCC(=O)N1[C@H](C(=O)N[C@@H](CCCC)C(=O)NC(C)(C)C(=O)N[C@@H](Cc2ccc(Cl)cc2)C(=O)O)C[C@@H]2CCCC[C@@H]21)C(=O)O) [Apelin polypeptide SEQ ID NO: 530]	380	0.975
Tridecanoyl-[AC4Abu][AEEA][AEEA]QRP[NMeR][Cha]SHKG[Aib][Nle]P[Phe(4-Cl)]-OH (SMILES CCCCCCCCCCCCC(=O)NCCC(C(=O)O)C(=O)NCCOCCOCC(=O)NCCOCCOCC(=O)N[C@@H](CCC(N)=O)C(=O)N[C@@H](CCCNC(=N)N)C(=O)N1CCC[C@H]1C(=O)N(C)[C@@H](CCCNC(=N)N)C(=O)N[C@@H](CC1CCCCC1)C(=O)N[C@@H](CO)C(=O)N[C@@H](Cc1c[nH]cn1)C(=O)N[C@@H](CCCCN)C(=O)NCC(=O)NC(C)(C)C(=O)N[C@@H](CCCC)C(=O)N1CCC[C@H]1C(=O)N[C@@H](Cc1ccc(Cl)cc1)C(=O)O) [Apelin polypeptide SEQ ID NO: 414]	3390	3.79
XXXQRPRLSHKGXXPF ({TDA}[AC4Abu][Aeea][Aeea]qRP[NMeArg][aMeLeu]SHKG[Pip][Nle][aMePro][4-Cl-F]{COOH}) [Apelin polypeptide SEQ ID NO: 555]	102	0.421
XXXQRPRLSHKGXXPF ({TDA}[AC4Abu][Aeea][Aeea]QRP[NMeArg][aMeLeu]SHKG[Pip][Nle][aMePro][4-Cl-F]{COOH}) [Apelin polypeptide SEQ ID NO: 605]	83.2	0.298
Tridecanoyl-[γGlu][AEEA][AEEA][dQ]RP[NMeR][Cha][β3hS]HKG[Oic][Nle][Aib][Phe(4-Cl)]-OH (SMILES CCCCCCCCCCCCC(=O)N[C@@H](CCC(=O)NCCOCCOCC(=O)NCCOCCOCC(=O)N[C@H](CCC(N)=O)C(=O)N[C@@H](CCCNC(=N)N)C(=O)N1CCC[C@H]1C(=O)N(C)[C@@H](CCCNC(=N)N)C(=O)N[C@@H](CC1CCCCC1)C(=O)N[C@@H](CO)CC(=O)N[C@@H](Cc1c[nH]cn1)C(=O)N[C@@H](CCCCN)C(=O)NCC(=O)N1[C@H](C(=O)N[C@@H](CCCC)C(=O)NC(C)(C)C(=O)N[C@@H](Cc2ccc(Cl)cc2)C(=O)O)C[C@@H]2CCCC[C@@H]21)C(=O)O) [Apelin polypeptide SEQ ID NO: 500]	588	3.14
XXXQRPRLSHKGPXPF ({TDA}[AC4Abu][Aeea][Aeea]QRP[NMeArg][BhLeu]SHKGP[Nle]P[4-Cl-F]{COOH}) [Apelin polypeptide SEQ ID NO: 422]	169	0.197
Tridecanoyl-[γGlu][AEEA][AEEA]QRP[NMeR][αMeL]SHKGP[Nle]P[2Nal]-OH (SMILES CCCCCCCCCCCCC(=O)N[C@@H](CCC(=O)NCCOCCOCC(=O)NCCOCCOCC(=O)N[C@@H](CCC(N)=O)C(=O)N[C@@H](CCCNC(=N)N)C(=O)N1CCC[C@H]1C(=O)N(C)[C@@H](CCCNC(=N)N)C(=O)N[C@@](C)(CC(C)C)C(=O)N[C@@H](CO)C(=O)N[C@@H](Cc1c[nH]cn1)C(=O)N[C@@H](CCCCN)C(=O)NCC(=O)N1CCC[C@H]1C(=O)N[C@@H](CCCC)C(=O)N1CCC[C@H]1C(=O)N[C@@H](Cc1ccc2ccccc2c1)C(=O)O)C(=O)O) [Apelin polypeptide SEQ ID NO: 472]	20.4	0.092
Tridecanoyl-[γGlu][AEEA][AEEA][dQ]RP[NMeR][Cha]SHK[Tle][Oic][Nle][Aib][Phe(4-Cl)]-OH (SMILES CCCCCCCCCCCCC(=O)N[C@@H](CCC(=O)NCCOCCOCC(=O)NCCOCCOCC(=O)N[C@H](CCC(N)=O)C(=O)N[C@@H](CCCNC(=N)N)C(=O)N1CCC[C@H]1C(=O)N(C)[C@@H](CCCNC(=N)N)C(=O)N[C@@H](CC1CCCCC1)C(=O)N[C@@H](CO)C(=O)N[C@@H](Cc1c[nH]cn1)C(=O)N[C@@H](CCCCN)C(=O)N[C@H](C(=O)N1[C@H](C(=O)N[C@@H](CCCC)C(=O)NC(C)(C)C(=O)N[C@@H](Cc2ccc(Cl)cc2)C(=O)O)C[C@@H]2CCCC[C@@H]21)C(C)(C)C)C(=O)O) [Apelin polypeptide SEQ ID NO: 543]	583	1.4
